Read-outs that look alike come from different tables or passages of the source.

Assay [1] addresses C1q. Kind of assay: SPR (BIAcore): 2B6 antibody captured on soluble CD32B (2bLAvi) on a CM-5 chip, C1q injected in a dilution series.
In assay [2] the target is C1q. Kind of assay: SPR (BIAcore): 2B6 antibody captured on soluble CD32B (2bLAvi) on a CM-5 chip, C1q injected at 0.8-26 nM. (In general: SPR reads the build-up and loss of mass on a sensor chip optically.)
The target of assay [3] is soluble monomeric FcγRIIIA-linker-AVITAG (158V), biotinylated (human) (UniProt P08637). Kind of assay: SPR.
Target sequence in this assay (P08637 17-203 F176V limits assumed, form in doubt): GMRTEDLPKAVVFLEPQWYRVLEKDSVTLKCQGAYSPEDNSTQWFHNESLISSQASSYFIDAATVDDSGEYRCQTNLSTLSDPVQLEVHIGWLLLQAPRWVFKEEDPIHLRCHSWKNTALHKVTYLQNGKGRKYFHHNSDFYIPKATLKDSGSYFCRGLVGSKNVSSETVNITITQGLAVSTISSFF
For assay [4], the target named is FcγRIIB-Fc fusion protein (soluble dimeric FcγRIIB) (human) (UniProt P31994). As to the kind of experiment: ELISA. A general note: In an ELISA, binding on a coated surface is turned into a signal by an enzyme label.
The target of assay [5] is soluble monomeric FcγRIIIA-linker-AVITAG (158V), biotinylated (human) (UniProt P08637). As to the kind of experiment: ELISA.
The target of assay [6] is FcγRIIB-Fc fusion protein (soluble dimeric FcγRIIB) (human) (UniProt P31994). As to the kind of experiment: SPR.
For assay [7] the target is unchanged. Kind of assay: BIAcore, separate fits at two concentrations of FcγRIIB-Fc, average (Table 18 prints 0.085).
For assay [8] the target is unchanged. Kind of assay: SPR. The source holds these as a separate data set.
The target of assay [9] is yeast-displayed wild type CH1-CH3 Fc fusion (pYD-CH1) (human) [IgG part: P01857]. Kind of assay: FACS titration on yeast, MFI, nonlinear regression.
For another assay, the target named is monomeric human IgG. Kind of assay: ELISA: plate coated with human IgG, receptor titrated, detection with DJ130c and anti-mouse peroxidase.

Chain of FcγRIIB-Fc fusion protein (soluble dimeric FcγRIIB) (human) (P31994 43-217): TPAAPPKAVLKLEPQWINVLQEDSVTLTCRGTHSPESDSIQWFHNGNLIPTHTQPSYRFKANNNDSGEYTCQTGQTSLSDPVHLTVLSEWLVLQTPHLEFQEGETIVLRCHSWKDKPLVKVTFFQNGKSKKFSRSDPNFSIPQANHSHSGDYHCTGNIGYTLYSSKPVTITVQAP
Chain of C1q (P02745 23-245, chain 1 of 3): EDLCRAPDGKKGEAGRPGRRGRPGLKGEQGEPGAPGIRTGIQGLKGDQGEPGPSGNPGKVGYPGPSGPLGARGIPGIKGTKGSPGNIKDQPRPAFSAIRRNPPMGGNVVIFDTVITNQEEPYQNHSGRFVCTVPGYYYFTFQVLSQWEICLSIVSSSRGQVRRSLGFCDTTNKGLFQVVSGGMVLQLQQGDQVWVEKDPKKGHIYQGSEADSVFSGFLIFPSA
Chain of C1q (P02746 28-253, chain 2 of 3, further chain): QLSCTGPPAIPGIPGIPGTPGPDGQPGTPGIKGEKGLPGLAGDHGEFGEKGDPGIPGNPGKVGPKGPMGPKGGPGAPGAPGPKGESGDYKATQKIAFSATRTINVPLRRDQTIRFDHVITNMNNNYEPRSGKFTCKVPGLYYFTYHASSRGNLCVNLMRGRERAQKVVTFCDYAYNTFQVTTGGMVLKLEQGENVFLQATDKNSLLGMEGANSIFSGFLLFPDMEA
Chain of C1q (P02747 29-245, chain 3 of 3, further chain): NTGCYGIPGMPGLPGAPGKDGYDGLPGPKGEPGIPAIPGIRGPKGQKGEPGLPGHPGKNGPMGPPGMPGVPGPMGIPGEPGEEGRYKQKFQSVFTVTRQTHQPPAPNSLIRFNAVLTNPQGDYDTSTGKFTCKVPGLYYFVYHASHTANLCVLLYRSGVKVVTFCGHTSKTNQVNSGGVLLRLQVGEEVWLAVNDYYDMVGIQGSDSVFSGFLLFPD

On to “2B6 (lower panel of FIG. 36B, Fc region not labelled) (antibody)”, for which, in the assay with C1q [1], the Kd – broadly, a measure of binding affinity in units of concentration – is 7 nM and the koff – broadly, the first-order rate constant of dissociation – was 0.06 s⁻¹.
“2B6 (upper panel of FIG. 36B, Fc region not labelled) (antibody)” gave a koff in the assay with C1q [2] of 0.13 s⁻¹.
“ch4-4-20 K392T, P396L (from UniProt P01857 1-330) (antibody)”: the equilibrium dissociation constant (Kd) in [3] was 84 nM.
For the substance ch4-4-20 S415I, L251F (antibody), the fold vs wt in assay [4] amounted to 0.75 x increase; in [5], 0.5 x increase.
In the case of “chimeric 4-4-20 anti-fluorescein antibody, wild type Fc”, the ELISA, OD in assay [4] came out at 0.4 OD; in [5], 0.5 OD. The dissociation constant (Kd) stood at 61.4 nM in assay [6], 94 nM in assay [8] and 319 nM in assay [3]. The dissociation rate constant (koff) stood at 0.085 s⁻¹ in assay [6], 0.0847 s⁻¹ in [7] and 0.094 s⁻¹ in assay [8]. For the same substance, the kon (commonly the rate constant with which the complex forms) in assay [3] is 600000 M⁻¹ s⁻¹.
On to “soluble FcγRIIIA tetrameric complex (from UniProt P08637 1-203) (receptor)”, for which, in assay [9], the Kd came to 6 nM. For the same substance, the concentration giving a half-maximal response (EC50 (read off the curve)) – broadly, the midpoint of the concentration-response curve – with monomeric human IgG worked out at 1 µg/mL.

For the origin of these results see patent US20070036799A1.
